T1: hBAKΔN22ΔC25Δcys (Homo sapiens, Δcys (cysteine to serine; position C166 from memory, not given))
T1 construct: BAK, human, lacking the N-terminal 22 residues and the C-terminal 25 residues (transmembrane anchor); wild-type cysteine residues replaced with serine; also called BAKΔTM; source: E. coli BL21 (DE3), purified (glutathione resin, HRV-3C cleavage, SEC Superdex S75)
T1 chain: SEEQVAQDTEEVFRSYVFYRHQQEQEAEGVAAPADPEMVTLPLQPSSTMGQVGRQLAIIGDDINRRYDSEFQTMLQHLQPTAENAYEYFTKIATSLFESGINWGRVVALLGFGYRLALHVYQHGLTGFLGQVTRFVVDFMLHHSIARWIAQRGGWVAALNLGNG

T2: hBAKΔN22ΔC25Δcys M60G (Homo sapiens, M60G | Δcys (cysteine to serine; position C166 from memory, not given))
T2 construct: BAK, human, ΔN22ΔC25, wild-type cysteine residues replaced with serine, M60G; also called hBAK M60G; BAK M60G; source: E. coli BL21 (DE3), purified (glutathione resin, HRV-3C cleavage, SEC Superdex S75)
T2 chain: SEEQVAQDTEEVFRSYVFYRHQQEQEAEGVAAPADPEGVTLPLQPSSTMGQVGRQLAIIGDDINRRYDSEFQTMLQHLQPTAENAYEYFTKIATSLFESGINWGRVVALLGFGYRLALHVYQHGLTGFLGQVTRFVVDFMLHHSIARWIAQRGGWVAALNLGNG

T3: hBAKΔN22ΔC25Δcys M60W (Homo sapiens, M60W | Δcys (cysteine to serine; position C166 from memory, not given))
T3 construct: BAK, human, ΔN22ΔC25, wild-type cysteine residues replaced with serine, M60W; also called hBAK M60W; BAK M60W; source: E. coli BL21 (DE3), purified (glutathione resin, HRV-3C cleavage, SEC Superdex S75)
T3 chain: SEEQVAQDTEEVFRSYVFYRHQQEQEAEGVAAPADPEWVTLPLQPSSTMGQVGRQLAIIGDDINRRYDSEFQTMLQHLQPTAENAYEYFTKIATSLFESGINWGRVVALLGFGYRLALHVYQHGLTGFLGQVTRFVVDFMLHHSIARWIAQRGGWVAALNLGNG

T4: mBAKΔN20ΔC25Δcys (Mus musculus, stabilised)
T4 construct: BAK, mouse, lacking the N-terminal 20 and the C-terminal 25 residues; wild-type cysteine residues replaced with serine; also called mouse BAK; source: E. coli BL21 (DE3), purified (glutathione resin, HRV-3C cleavage, SEC Superdex S75)
T4 chain: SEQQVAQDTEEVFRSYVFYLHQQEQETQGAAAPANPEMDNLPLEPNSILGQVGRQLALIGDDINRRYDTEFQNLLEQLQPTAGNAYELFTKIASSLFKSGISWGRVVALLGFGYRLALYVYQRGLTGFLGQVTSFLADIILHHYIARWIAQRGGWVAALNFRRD


Legend:
[1] = target: T5, BAK, endogenous, in human leukaemia cell lines (Homo sapiens, UniProt Q16611); assay: native gel or EMSA; untreated membrane fractions incubated with antibody on ice for 30 min, solubilized with 1% digitonin, BN-PAGE, blot for BAK (gel-shift); settings: one partner purified
T5 construct: BAK, endogenous in blood cancer cell lines established from patients with ALL or AML; the methods list RS4;11, MOLM-13, KG-1, HL-60, OCI-AML3, MV4;11 and THP-1; source: endogenous, membrane fractions of human ALL and AML cell lines, solubilized in 1% digitonin

[2] = target: T6, human BAK, full-length, in mitochondria-enriched membrane fractions of bak−/−bax−/− MEFs (Homo sapiens, UniProt Q16611); assay: immunoprecipitation; membrane fractions of MEFs expressing hBAK, no cBID, solubilized in 1% digitonin, pre-cleared; Protein G Sepharose with 4 μg antibody, 4 °C, 1-2 h; blot for BAK; settings: one partner purified
T6 construct: BAK, human, full-length; also called hBAK; source: stably expressed in SV40-immortalized bak−/−bax−/− MEFs; permeabilized cells or membrane fractions, solubilized in 1% digitonin for IP and BN-PAGE

hBAKΔN22ΔC25Δcys [3] = target: T1, hBAKΔN22ΔC25Δcys; assay: SPR; 14G6 (about 150 RU) captured on a Protein A chip; BAK injected in a threefold dilution series (0.45-1000 nM), single-cycle kinetics; 25 °C, DPBS + 0.005% Tween-20; 1:1 binding model; mean ± SD of three experiments; settings: both partners purified
hBAKΔN22ΔC25Δcys M60G = target: T2, hBAKΔN22ΔC25Δcys M60G; assay: as above; settings: both partners purified
hBAKΔN22ΔC25Δcys M60W = target: T3, hBAKΔN22ΔC25Δcys M60W; assay: as above; settings: both partners purified
mBAKΔN20ΔC25Δcys = target: T4, mBAKΔN20ΔC25Δcys; assay: as above; settings: both partners purified
hBAKΔN22ΔC25Δcys [4] = target: T1, hBAKΔN22ΔC25Δcys; assay: SEC; 14G6 Fab mixed with a 1.5-fold excess of BAKΔTM; Superdex 200 Increase 10/300 in TBS; complex of ca 65 kDa; settings: both partners purified

T5 sequence (Q16611 whole entry): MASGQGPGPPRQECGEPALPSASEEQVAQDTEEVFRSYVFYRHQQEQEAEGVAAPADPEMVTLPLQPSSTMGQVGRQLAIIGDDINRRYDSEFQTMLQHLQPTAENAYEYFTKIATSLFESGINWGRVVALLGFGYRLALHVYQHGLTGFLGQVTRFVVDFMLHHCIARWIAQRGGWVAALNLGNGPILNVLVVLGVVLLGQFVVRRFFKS

Row | Binder | binding result [1] | binding result [2] | Kd (hBAKΔN22ΔC25Δcys [3]) | koff (hBAKΔN22ΔC25Δcys [3]) | kon (hBAKΔN22ΔC25Δcys [3]) | Kd (hBAKΔN22ΔC25Δcys M60G) | koff (hBAKΔN22ΔC25Δcys M60G) | kon (hBAKΔN22ΔC25Δcys M60G) | Kd (hBAKΔN22ΔC25Δcys M60W) | koff (hBAKΔN22ΔC25Δcys M60W) | kon (hBAKΔN22ΔC25Δcys M60W) | Kd (mBAKΔN20ΔC25Δcys) | koff (mBAKΔN20ΔC25Δcys) | kon (mBAKΔN20ΔC25Δcys) | stoichiometry N (hBAKΔN22ΔC25Δcys [4])
1 | 14G6 antibody (antibody, V domains shown, mouse variable region, human constant region; The results call it a chimera with human constant regions; the immunoprecipitation methods call it '14G6 mouse monoclonal antibody'; Used as an AF488 conjugate for immunocytochemistry; also called clone 14G6; 14G6-AF488; source: mouse B cell cloning; recovered antibody variable regions expressed as chimeras containing human constant regions; copies: 2 …) VH: EVKLVESGAELVRPGTSVKVSCKASGYAFTNYLIEWVKQRPGQGLEWIGVINPGSGGTNYNEKFKGKATLTADKSSSTAYMQLTSLTSDDSAVYFCASPSLYGSFDYWGQGTTVTVSS VL: DIVMTQSHKFMSTSVGDRVSITCKASQDVGTAVAWYQQKPGQSPKLLIYWASTRHTGVPDRFTGSGSGTDFTLTISNVQSEDLADYFCQQYSSYRTFGGGTKLEIK | binds | binds | 10 nM | 7e-05 s⁻¹ | 6000 M⁻¹ s⁻¹ | 0.6 nM | 7e-05 s⁻¹ | 110000 M⁻¹ s⁻¹ | 9 nM | 5e-05 s⁻¹ | 4900 M⁻¹ s⁻¹ | 1140 nM | 0.00092 s⁻¹ | 810 M⁻¹ s⁻¹ | 
2 | 14G6 Fab (Fab, V domains shown, Fab part of the heavy chain of m1; as the light chain of m1; also called Fab fragment of antibody 14G6; source: papain cleavage of the full-length antibody, purified by cation exchange (Mono S)) VH: EVKLVESGAELVRPGTSVKVSCKASGYAFTNYLIEWVKQRPGQGLEWIGVINPGSGGTNYNEKFKGKATLTADKSSSTAYMQLTSLTSDDSAVYFCASPSLYGSFDYWGQGTTVTVSS VL: DIVMTQSHKFMSTSVGDRVSITCKASQDVGTAVAWYQQKPGQSPKLLIYWASTRHTGVPDRFTGSGSGTDFTLTISNVQSEDLADYFCQQYSSYRTFGGGTKLEIK |  |  |  |  |  |  |  |  |  |  |  |  |  |  | 1

From paper PMC11164899, “A novel inhibitory BAK antibody enables assessment of non-activated BAK in cancer cells” (Cell Death and Differentiation, 2024)
